Measurements reported in article PMC9976406, “ANGPTL2 binds MAG to efficiently enhance oligodendrocyte differentiation” (Cell & Bioscience, 2023).
Blank lines part the entries; values can stand above or below the molecule they belong to.

Tests used:
[1] = target: ANGPTL2-Flag (angiopoietin-like protein 2) (UniProt Q9UKU9); assay: flow cytometry on cells; settings: MAG constructs expressed on 293T cells; ANGPTL2 row of plots (representative plot; n = 3 in panel H); parent: 41.7
LILRB2 (Homo sapiens) = LILRB2 (Homo sapiens) (UniProt Q8N423); settings: cited from earlier work
[2] = target: T1, ANGPTL2-Flag (angiopoietin-like protein 2), Q9UKU9; assay: flow cytometry on cells; settings: chain shown with the change; MAG constructs expressed on 293T cells; ANGPTL2 row of plots (representative plot; n = 3 in panel H); parent: 41.7
T1 chain: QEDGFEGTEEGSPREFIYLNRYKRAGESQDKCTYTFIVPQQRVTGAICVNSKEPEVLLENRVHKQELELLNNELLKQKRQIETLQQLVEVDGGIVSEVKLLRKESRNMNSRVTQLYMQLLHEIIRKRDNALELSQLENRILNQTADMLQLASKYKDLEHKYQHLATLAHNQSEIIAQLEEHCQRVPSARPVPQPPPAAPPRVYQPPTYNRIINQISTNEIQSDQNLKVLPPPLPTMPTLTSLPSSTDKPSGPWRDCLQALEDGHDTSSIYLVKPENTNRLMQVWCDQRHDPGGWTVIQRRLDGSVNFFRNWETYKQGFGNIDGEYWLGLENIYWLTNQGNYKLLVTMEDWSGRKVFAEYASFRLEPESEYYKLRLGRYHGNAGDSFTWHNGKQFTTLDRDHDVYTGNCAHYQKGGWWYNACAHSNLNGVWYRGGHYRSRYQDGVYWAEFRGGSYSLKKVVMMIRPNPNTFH

[3] = target: human MAG-ECD-FC (extracellular domain of human MAG fused with human Fc) (human) (UniProt P20916); assay: SPR; Biacore T200, CM5 chip; MAG-hFc from conditioned medium captured by pre-immobilised anti-hFc antibody; purified ANGPTL2 injected at indicated doses
[4] = target: T2, murine MAG-ECD-Fc (extracellular domain of murine MAG fused with human Fc) (murine, UniProt P20917 20-516); assay: BLI; Octet RED96/RED96e; MAG-hFc from conditioned medium loaded on AHC biosensors; purified ANGPTL2 at indicated doses in kinetics buffer; settings: one partner purified
T2 construct: myelin-associated glycoprotein (MAG), murine, extracellular domain (ECD); also called mouse MAG-hFc; murine MAG-hFC; source: 293T, transfected, in conditioned medium
T2 sequence (looked up): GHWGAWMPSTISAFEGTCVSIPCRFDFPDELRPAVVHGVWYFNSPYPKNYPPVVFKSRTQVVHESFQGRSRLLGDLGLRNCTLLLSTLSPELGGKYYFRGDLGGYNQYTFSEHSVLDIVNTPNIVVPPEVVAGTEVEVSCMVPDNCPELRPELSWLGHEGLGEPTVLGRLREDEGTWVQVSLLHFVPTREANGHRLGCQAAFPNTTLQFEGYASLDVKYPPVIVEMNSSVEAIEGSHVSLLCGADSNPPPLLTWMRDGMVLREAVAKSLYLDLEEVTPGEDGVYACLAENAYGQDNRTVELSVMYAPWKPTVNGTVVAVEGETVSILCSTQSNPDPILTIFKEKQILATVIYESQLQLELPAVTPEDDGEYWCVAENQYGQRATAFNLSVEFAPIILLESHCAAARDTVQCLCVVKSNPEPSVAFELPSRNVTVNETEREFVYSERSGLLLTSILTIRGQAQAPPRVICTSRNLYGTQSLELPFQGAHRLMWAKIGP

[5] = target: human MAG-ECD-FC (extracellular domain of human MAG fused with human Fc) (human) (UniProt P20916); assay: as above
[6] = target: T2, murine MAG-ECD-Fc (extracellular domain …); assay: SPR; Biacore T200, CM5 chip; MAG-hFc from conditioned medium captured by pre-immobilised anti-hFc antibody; purified ANGPTL2 injected at indicated doses; settings: one partner purified

LILRB2 (Homo sapiens), sequence (Q8N423 22-460): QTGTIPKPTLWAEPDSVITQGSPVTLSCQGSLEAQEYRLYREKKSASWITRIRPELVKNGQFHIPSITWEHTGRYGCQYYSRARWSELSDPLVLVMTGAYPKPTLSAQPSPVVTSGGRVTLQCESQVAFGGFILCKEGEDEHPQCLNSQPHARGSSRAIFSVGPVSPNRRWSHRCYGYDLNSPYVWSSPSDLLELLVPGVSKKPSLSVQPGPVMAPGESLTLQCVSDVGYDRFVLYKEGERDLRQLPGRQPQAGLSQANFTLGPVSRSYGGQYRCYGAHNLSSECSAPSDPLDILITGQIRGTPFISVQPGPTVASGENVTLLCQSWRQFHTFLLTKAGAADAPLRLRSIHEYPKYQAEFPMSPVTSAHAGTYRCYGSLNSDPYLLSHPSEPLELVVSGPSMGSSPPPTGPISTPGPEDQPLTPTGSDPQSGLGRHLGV

- response (% of EGFP+ cells binding ANGPTL2) [1]: 0.33
Molecule: human MAG (myelin-associated glycoprotein), full-length, fused with EGFP (N1-hMAG-EGFP) (from UniProt P20916) G389D; Y341A

Molecule: ANGPTL2 (from UniProt Q9UKU9)
- Kd (LILRB2 (Homo sapiens)): 5.5 nM

- response (% of EGFP+ cells binding ANGPTL2) [2]: 0.61
B1: human MAG (myelin-associated glycoprotein), full-length, fused with EGFP (N1-hMAG-EGFP), P20916 G301D; Y303A (protein)
chain: GHWGAWMPSSISAFEGTCVSIPCRFDFPDELRPAVVHGVWYFNSPYPKNYPPVVFKSRTQVVHESFQGRSRLLGDLGLRNCTLLLSNVSPELGGKYYFRGDLGGYNQYTFSEHSVLDIVNTPNIVVPPEVVAGTEVEVSCMVPDNCPELRPELSWLGHEGLGEPAVLGRLREDEGTWVQVSLLHFVPTREANGHRLGCQASFPNTTLQFEGYASMDVKYPPVIVEMNSSVEAIEGSHVSLLCGADSNPPPLLTWMRDGTVLREAVAESLLLELEEVTPAEDDVAACLAENAYGQDNRTVGLSVMYAPWKPTVNGTMVAVEGETVSILCSTQSNPDPILTIFKEKQILSTVIYESELQLELPAVSPEDDGEYWCVAENQYGQRATAFNLSVEFAPVLLLESHCAAARDTVQCLCVVKSNPEPSVAFELPSRNVTVNESEREFVYSERSGLVLTSILTLRGQAQAPPRVICTARNLYGAKSLELPFQGAHRLMWAKIGPVGAVVAFAILIAIVCYITQTRRKKNVTESPSFSAGDNPPVLFSSDFRISGAPEKYESERRLGSERRLLGLRGEPPELDLSYSHSDLGKRPTKDSYTLTEELAEYAEIRVK

- Kd [3]: 6.47 nM
- Kd [4]: 16.4 nM
- Kd [5]: 9.34 nM
- Kd [6]: 3.08 nM
B2: ANGPTL2-Flag (angiopoietin-like protein 2) (ligand, UniProt Q9UKU9 23-493, looked up)
chain: QEDGFEGTEEGSPREFIYLNRYKRAGESQDKCTYTFIVPQQRVTGAICVNSKEPEVLLENRVHKQELELLNNELLKQKRQIETLQQLVEVDGGIVSEVKLLRKESRNMNSRVTQLYMQLLHEIIRKRDNALELSQLENRILNQTADMLQLASKYKDLEHKYQHLATLAHNQSEIIAQLEEHCQRVPSARPVPQPPPAAPPRVYQPPTYNRIINQISTNEIQSDQNLKVLPPPLPTMPTLTSLPSSTDKPSGPWRDCLQALEDGHDTSSIYLVKPENTNRLMQVWCDQRHDPGGWTVIQRRLDGSVNFFRNWETYKQGFGNIDGEYWLGLENIYWLTNQGNYKLLVTMEDWSGRKVFAEYASFRLEPESEYYKLRLGRYHGNAGDSFTWHNGKQFTTLDRDHDVYTGNCAHYQKGGWWYNACAHSNLNGVWYRGGHYRSRYQDGVYWAEFRGGSYSLKKVVMMIRPNPNTFH
notes: angiopoietin-like protein 2 (ANGPTL2), secreted into the conditioned medium of 293T cells; The same ANGPTL2-Flag was used on human and murine MAG; also called purified ANGPTL2 protein; source: 293T, transfected with CMV-ANGPTL2-Flag; conditioned medium collected after 48 h, or purified from it with M2 resin
